Patent US20060121570A1 (published 2006)

Assays:
[1] = target: T1, platelet integrin αIIbβ3 (human platelet glycoprotein gpIIb/IIIa), purified (human, UniProt P08514 32-1039; P05106 27-788); assay: inhibition of 125I-fibrinogen binding to purified αIIbβ3
T1 construct: mature

[2] = target: T1, platelet integrin αIIbβ3 (human …); assay: SPR (BIAcore), αIIbβ3 immobilized

B1: circular peptide CSFGRNDSRNC derived from the HCDR3 of MTF-40 (peptide)
peptide: CSFGRNDSRNC
HELM: PEPTIDE1{[ac].C.S.F.G.R.N.D.S.R.N.C.[am]}$PEPTIDE1,PEPTIDE1,2:R3-12:R3$$$V2.0
SMILES: CC(=O)N[C@H]1CSSC[C@@H](C(N)=O)NC(=O)[C@H](CC(N)=O)NC(=O)[C@H](CCCNC(=N)N)NC(=O)[C@H](CO)NC(=O)[C@H](CC(=O)O)NC(=O)[C@H](CC(N)=O)NC(=O)[C@H](CCCNC(=N)N)NC(=O)CNC(=O)[C@H](Cc2ccccc2)NC(=O)[C@H](CO)NC1=O
notes: also called peptide 40 (circular)
IC50 [1]: 0.5 µM

B2: linear peptide GCSFGRTDQRNCY derived from the HCDR3 of MTF-32 (peptide)
peptide: Ac-GCSFGRTDQRNCY-NH2
modifications: cysteine pairing not given here
notes: also called peptide 32 (linear)
IC50 [1]: 2 µM

B3: fibrinogen (ligand)
chain 1: ADSGEGDFLAEGGGVRGPRVVERHQSACKDSDWPFCSDEDWNYKCPSGCRMKGLIDEVNQDFTNRINKLKNSLFEYQKNNKDSHSLTTNIMEILRGDFSSANNRDNTYNRVSEDLRSRIEVLKRKVIEKVQHIQLLQKNVRAQLVDMKRLEVDIDIKIRSCRGSCSRALAREVDLKDYEDQQKQLEQVIAKDLLPSRDRQHLPLIKMKPVPDLVPGNFKSQLQKVPPEWKALTDMPQMRMELERPGGNEITRGGSTSYGTGSETESPRNPSSAGSWNSGSSGPGSTGNRNPGSSGTGGTATWKPGSSGPGSTGSWNSGSSGTGSTGNQNPGSPRPGSTGTWNPGSSERGSAGHWTSESSVSGSTGQWHSESGSFRPDSPGSGNARPNNPDWGTFEEVSGNVSPGTRREYHTEKLVTSKGDKELRTGKEKVTSGSTTTTRRSCSKTVTKTVIGPDGHKEVTKEVVTSEDGSDCPEAMDLGTLSGIGTLDGFRHRHPDEAAFFDTASTGKTFPGFFSPMLGEFVSETESRGSESGIFTNTKESSSHHPGIAEFPSRGKSSSYSKQFTSSTSYNRGDSTFESKSYKMADEAGSEADHEGTHSTKRGHAKSRPV
chain 2: QGVNDNEEGFFSARGHRPLDKKREEAPSLRPAPPPISGGGYRARPAKAAATQKKVERKAPDAGGCLHADPDLGVLCPTGCQLQEALLQQERPIRNSVDELNNNVEAVSQTSSSSFQYMYLLKDLWQKRQKQVKDNENVVNEYSSELEKHQLYIDETVNSNIPTNLRVLRSILENLRSKIQKLESDVSAQMEYCRTPCTVSCNIPVVSGKECEEIIRKGGETSEMYLIQPDSSVKPYRVYCDMNTENGGWTVIQNRQDGSVDFGRKWDPYKQGFGNVATNTDGKNYCGLPGEYWLGNDKISQLTRMGPTELLIEMEDWKGDKVKAHYGGFTVQNEANKYQISVNKYRGTAGNALMDGASQLMGENRTMTIHNGMFFSTYDRDNDGWLTSDPRKQCSKEDGGGWWYNRCHAANPNGRYYWGGQYTWDMAKHGTDDGVVWMNWKGSWYSMRKMSMKIRPFFPQQ
chain 3: YVATRDNCCILDERFGSYCPTTCGIADFLSTYQTKVDKDLQSLEDILHQVENKTSEVKQLIKAIQLTYNPDESSKPNMIDAATLKSRKMLEEIMKYEASILTHDSSIRYLQEIYNSNNQKIVNLKEKVAQLEAQCQEPCKDTVQIHDITGKDCQDIANKGAKQSGLYFIKPLKANQQFLVYCEIDGSGNGWTVFQKRLDGSVDFKKNWIQYKEGFGHLSPTGTTEFWLGNEKIHLISTQSAIPYALRVELEDWNGRTSTADYAMFKVGPEADKYRLTYAYFAGGDAGDAFDGFDFGDDPSDKFFTSHNGMQFSTWDNDNDKFEGNCAEQDGSGWWMNKCHAGHLNGVYYQGGTYSKASTPNGYDNGIIWATWKTRWYSMKKTTMKIIPFNRLTIGEGQQHHLGGAKQAGDV
kon [2]: 600000 M⁻¹ s⁻¹

B4: linear peptide GCSFGRNDSRNCY derived from the HCDR3 of MTF-40 (peptide)
peptide: Ac-GCSFGRNDSRNCY-NH2
modifications: cysteine pairing not given here
notes: also called peptide 40 (linear)
IC50 [1]: 0.5 µM

B5: circular peptide CSFGRTDQRNC derived from the HCDR3 of MTF-32 (peptide)
peptide: CSFGRTDQRNC
HELM: PEPTIDE1{[ac].C.S.F.G.R.T.D.Q.R.N.C.[am]}$PEPTIDE1,PEPTIDE1,2:R3-12:R3$$$V2.0
SMILES: CC(=O)N[C@H]1CSSC[C@@H](C(N)=O)NC(=O)[C@H](CC(N)=O)NC(=O)[C@H](CCCNC(=N)N)NC(=O)[C@H](CCC(N)=O)NC(=O)[C@H](CC(=O)O)NC(=O)[C@H]([C@@H](C)O)NC(=O)[C@H](CCCNC(=N)N)NC(=O)CNC(=O)[C@H](Cc2ccccc2)NC(=O)[C@H](CO)NC1=O
notes: also called peptide 32 (circular)
IC50 [1]: 2 µM
